T1: soluble CD32A (sCD32A) (UniProt P12318 34-217, limits assumed)
T1 construct: extracellular domain; also called sCD32A (negative control)
T1 sequence (looked up): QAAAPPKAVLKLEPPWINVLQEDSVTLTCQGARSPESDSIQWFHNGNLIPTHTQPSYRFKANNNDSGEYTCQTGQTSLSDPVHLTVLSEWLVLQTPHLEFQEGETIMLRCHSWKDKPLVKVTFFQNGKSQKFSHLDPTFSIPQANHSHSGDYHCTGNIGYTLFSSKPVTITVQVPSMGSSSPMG

T2: soluble CD32B (sCD32B) (human, UniProt P31994 43-217)
T2 construct: extracellular domain; also called FcγRIIB; soluble CD32B ectodomain
T2 sequence (looked up): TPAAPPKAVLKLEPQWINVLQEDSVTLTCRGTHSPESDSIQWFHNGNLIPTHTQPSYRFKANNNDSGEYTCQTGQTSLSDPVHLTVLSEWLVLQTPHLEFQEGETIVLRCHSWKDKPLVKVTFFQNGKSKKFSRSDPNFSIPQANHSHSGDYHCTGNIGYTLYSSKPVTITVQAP

T3: sCD32B-Ig (UniProt P31994 43-217)
T3 construct: extracellular domain; also called CD32B-Fc; CD32-Fc; not shown: Ig/Fc part not described
T3 sequence (looked up): T2 sequence (looked up)

B1: h2B6 covalent monospecific diabody (CMD) (other)
chain: EIVLTQSPDFQSVTPKEKVTFTCRTSQSIGTNIHWYQQKPDQSPKLLIKEVSESISGVPSRFSGSGSGTDFTLTINSLEAEDAATYYCQQSNTWPFTFGGGTKVEIKGGGSGGGGQVQLVQSGAEVKKPGASVKVSCKASGYTFTNYWIHWVRQAPGQGLEWIGVIDPSDTYPNYNKKFKGRVTMTVVVSTSTAYMELRSLRSDDTAVYYCARNGDSDYYSGMDYWGQGTTVTVSSLGGC
modifications: covalent homodimer: two copies of this chain, disulfide-linked through the C-terminal LGGC cysteine
notes: covalent homodimer; also called h2B6 CMD; h2B6 diabody
B2: h3G8 covalent monospecific diabody (CMD) (other)
chain: DIVMTQSPDSLAVSLGERATINCKASQSVDFDGDSFMNWYQQKPGQPPKLLIYTTSNLESGVPDRFSGSGSGTDFTLTISSLQAEDVAVYYCQQSNEDPYTFGQGTKLEIKGGGSGGGGQVTLRESGPALVKPTQTLTLTCTFSGFSLSTSGMGVGWIRQPPGKALEWLAHIWWDDDKRYNPALKSRLTISKDTSKNQVVLTMTNMDPVDTATYYCAQINPAWFAYWGQGTLVTVSSLGGC
modifications: covalent homodimer: two copies of this chain, disulfide-linked through the C-terminal LGGC cysteine
notes: covalent homodimer; also called h3G8 CMD; h3G8 diabody

What was measured:
[1] = molecular target: T4, human serum albumin (HSA) (human, UniProt P02768 25-609); assay: HSA binding class
T4 construct: also called HRP-human albumin

[2] = molecular target: T5, soluble CD16A (sCD16A) (human, UniProt P08637 17-208); assay: SPR (BIAcore): sCD16 immobilised, diabody injected for 60 s
T5 construct: extracellular domain; given only as soluble; immobilised in SPR, plate coat or biotin/HRP-labelled probe in ELISA; also called FcγRIIIA; sCD16A-Biotin

[3] = molecular target: T1, soluble CD32A (sCD32A); assay: SPR (BIAcore): sCD32A (negative control) immobilised, diabody injected for 60 s
[4] = molecular target: T2, soluble CD32B (sCD32B); assay: SPR (BIAcore), receptor immobilised
[5] = molecular target: T3, sCD32B-Ig; assay: sandwich ELISA, sCD32B-Ig coat, sCD16A probe
[6] = molecular target: T2, soluble CD32B (sCD32B); assay: sandwich ELISA: sCD32B coated (sCD32B-Ig, 2 ug/ml), diabody titrated, labelled sCD16A as probe

T5 sequence (P08637 17-208): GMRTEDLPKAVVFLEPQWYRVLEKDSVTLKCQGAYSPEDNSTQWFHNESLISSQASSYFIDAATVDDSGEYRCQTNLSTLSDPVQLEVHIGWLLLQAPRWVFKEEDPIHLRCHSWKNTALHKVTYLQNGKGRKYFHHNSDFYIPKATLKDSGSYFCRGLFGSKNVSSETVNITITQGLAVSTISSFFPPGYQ

Binder | HSA binding [1] | binding result [2] | binding result [3] | Kd [4] [nM] | binding result [5] | binding result [6]
LAEAKVLANRELDKYGVSDYYKNGANNAKTAEGVKALIDEILAALP (other, also called 64G/65A/71A) [ABD3 L64G/I65A/V71A] | < 0.1 | – | – | – | – | –
B1 | – | no binding (tested: 100 nM) | no binding (tested: 100 nM) | 21 | – | –
B2 | – | – | no binding (tested: 100 nM) | – | no binding (tested: 0.5 µg/ml to 0.001 µg/ml) | no binding (tested: 0.5 ug/ml)
